Legend:
[1] = molecular target: T1, glutathione S-transferase (GST)-PEDF-fusion protein (mouse, UniProt P97298 20-417); assay: ELISA; competitive ELISA: wells coated with 10 μg/ml collagen I; annealed peptides preincubated with 3 nM GST-PEDF for 10 min at room temperature in 20 mM HEPES-Na pH 7.4, 100 mM NaCl, 0.005% Tween 20; 90 min at 4 °C in the wells; HRP-anti-GST detection; settings: both partners purified
T1 construct: pigment epithelium-derived factor (PEDF); also called GST-fused PEDF; recombinant PEDF
T1 sequence (looked up): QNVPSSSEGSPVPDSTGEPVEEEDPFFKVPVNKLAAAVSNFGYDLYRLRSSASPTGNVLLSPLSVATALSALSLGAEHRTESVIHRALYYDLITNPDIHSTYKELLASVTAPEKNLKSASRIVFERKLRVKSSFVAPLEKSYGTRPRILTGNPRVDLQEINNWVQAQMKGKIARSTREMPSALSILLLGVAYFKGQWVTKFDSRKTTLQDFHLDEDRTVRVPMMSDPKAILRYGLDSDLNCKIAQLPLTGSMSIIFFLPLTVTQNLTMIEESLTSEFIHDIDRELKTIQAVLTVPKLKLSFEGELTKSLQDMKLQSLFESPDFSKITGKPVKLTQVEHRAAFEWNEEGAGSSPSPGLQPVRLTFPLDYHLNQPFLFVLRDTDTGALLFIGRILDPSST

[2] = molecular target: the molecule itself; assay: circular dichroism with thermal melting; peptides in PBS, heated at 95 °C, annealed at 4 °C overnight; [θ]225 followed from 4 to 85 °C; chains of one peptide forming a triple helix

B1: synthetic triple-helical peptide pep8 (peptide)
chain: YPPGPPGPPGPPGPRGPRGLLGLPGPPGPPGPPGPPG
HELM: PEPTIDE1{Y.P.[Hyp].G.P.[Hyp].G.P.[Hyp].G.P.[Hyp].G.P.R.G.P.R.G.L.L.G.L.[Hyp].G.P.[Hyp].G.P.[Hyp].G.P.[Hyp].G.P.[Hyp].G.[am]}$$$$V2.0; N-terminus assumed
SMILES: CC(C)C[C@H](NC(=O)CNC(=O)[C@H](CCCNC(=N)N)NC(=O)[C@@H]1CCCN1C(=O)CNC(=O)[C@H](CCCNC(=N)N)NC(=O)[C@@H]1CCCN1C(=O)CNC(=O)[C@@H]1C[C@@H](O)CN1C(=O)[C@@H]1CCCN1C(=O)CNC(=O)[C@@H]1C[C@@H](O)CN1C(=O)[C@@H]1CCCN1C(=O)CNC(=O)[C@@H]1C[C@@H](O)CN1C(=O)[C@@H]1CCCN1C(=O)CNC(=O)[C@@H]1C[C@@H](O)CN1C(=O)[C@@H]1CCCN1C(=O)[C@@H](N)Cc1ccc(O)cc1)C(=O)N[C@@H](CC(C)C)C(=O)NCC(=O)N[C@@H](CC(C)C)C(=O)N1C[C@H](O)C[C@H]1C(=O)NCC(=O)N1CCC[C@H]1C(=O)N1C[C@H](O)C[C@H]1C(=O)NCC(=O)N1CCC[C@H]1C(=O)N1C[C@H](O)C[C@H]1C(=O)NCC(=O)N1CCC[C@H]1C(=O)N1C[C@H](O)C[C@H]1C(=O)NCC(=O)N1CCC[C@H]1C(=O)N1C[C@H](O)C[C@H]1C(=O)NCC(N)=O
notes: Triple helix by CD; annealed before use; source: synthetic peptide (Fmoc solid phase, RP-HPLC purified)
In the case of B1, the IC50 [1] is reported as greater than 10 µM and the binding result [2] is reported as “binds”.

— article PMC11533527, “A yeast two-hybrid system to obtain triple-helical ligands from combinatorial random peptide libraries” (The Journal of Biological Chemistry, 2024)
